From PMC6755086

Target: Xanthamonas campestris p.v. campestris Class 2 OLD protein, full-length (Xcc^FL, residues 1-595) (Xanthamonas campestris p.v. campestris)
Assay: SEC-MALS

Xanthamonas campestris p.v. campestris Class 2 OLD protein, full-length (Xcc^FL, residues 1-595) (enzyme)
stoichiometry N: 4
